Experimental data as given in paper PMC6355003, “New interfaces on MiD51 for Drp1 recruitment and regulation” (PLoS ONE, 2019).

What was measured:
Settings in all cases: both partners purified
[1] = molecular target: T1, Drp1 S600D (UniProt O00429-4 1-699, S600D); experiment: pull-down; GST-fused MiD51^133-463 or mutants on Glutathione Sepharose 4B, equal molar Drp1, 3 h at 4°C; 20 mM HEPES pH 7.5, 150 mM NaCl, 1% Triton X-100, 1 mM MgCl2; SDS-PAGE, Coomassie staining; no nucleotide
T1 construct: Drp1, GenBank NM_005690; S600 is S637 in Drp1 isoform 1 (printed); also called phosphorylation site mutant (related to S637 in Drp1 isoform 1); source: E. coli Rosseta (DE3), purified (Ni-NTA, anion exchange, size-exclusion chromatography)

[2] = molecular target: T2, Drp1 K38A (UniProt O00429-4 1-699, K38A); experiment: as above
T2 construct: Drp1, GenBank NM_005690; also called K38A mutant of Drp1; dominant-negative GTPase mutation K38A; source: E. coli Rosseta (DE3), purified (Ni-NTA, anion exchange, size-exclusion chromatography)

[3] = molecular target: T3, Drp1 G350D (UniProt O00429-4 1-699, G350D); experiment: as above
T3 construct: Drp1, GenBank NM_005690; source: E. coli Rosseta (DE3), purified (Ni-NTA, anion exchange, size-exclusion chromatography)

[4] = molecular target: T4, Drp1 A395D (UniProt O00429-4 1-699, A395D); experiment: as above
T4 construct: Drp1, GenBank NM_005690; source: E. coli Rosseta (DE3), purified (Ni-NTA, anion exchange, size-exclusion chromatography)

[5] = molecular target: T5, Drp1 G350D/A395D (UniProt O00429-4 1-699, G350D | A395D); experiment: as above
T5 construct: Drp1, GenBank NM_005690; source: E. coli Rosseta (DE3), purified (Ni-NTA, anion exchange, size-exclusion chromatography)

[6] = molecular target: T6, Drp1 G350D/AAAA (UniProt O00429-4 1-699, G350D | 401GPRP404→AAAA); experiment: as above
T6 construct: Drp1, GenBank NM_005690; source: E. coli Rosseta (DE3), purified (Ni-NTA, anion exchange, size-exclusion chromatography)

[7] = molecular target: T7, Drp1 A395D/AAAA (UniProt O00429-4 1-699, A395D | 401GPRP404→AAAA); experiment: as above
T7 construct: Drp1, GenBank NM_005690; source: E. coli Rosseta (DE3), purified (Ni-NTA, anion exchange, size-exclusion chromatography)

[8] = molecular target: T8, Drp1 S579D (UniProt O00429-4 1-699, S579D); experiment: as above
T8 construct: Drp1, GenBank NM_005690; S579 is S616 in Drp1 isoform 1 (printed); also called phosphorylation site mutant (related to S616 in Drp1 isoform 1); source: E. coli Rosseta (DE3), purified (Ni-NTA, anion exchange, size-exclusion chromatography)

[9] = molecular target: T9, Drp1 (dynamin-related protein Drp1), wild type (UniProt O00429-4 1-699); experiment: pull-down; GST-MiD51^133-463 on Glutathione Sepharose; MiD51 and Drp1 mixed first, then no nucleotide (apo) or 1 mM GTP, GMP-PNP, GDP-AlFx or GDP in assay and wash buffer; 20 mM HEPES pH 7.5, 150 mM NaCl, 1% Triton X-100, 1 mM MgCl2; Coomassie staining
T9 construct: Drp1, GenBank NM_005690; also called wild-type Drp1; source: E. coli Rosseta (DE3), purified (Ni-NTA, anion exchange, size-exclusion chromatography)

[10] = molecular target: T10, Drp1 AAAA mutant (401GPRP404→AAAA) (UniProt O00429-4 1-699, 401GPRP404→AAAA); experiment: as above
T10 construct: Drp1, GenBank NM_005690; source: E. coli Rosseta (DE3), purified (Ni-NTA, anion exchange, size-exclusion chromatography)

binding result [1]: binds
binding result [2]: binds
binding result [3]: binds
binding result [4]: binds
binding result [5]: binds
binding result [6]: binds
binding result [7]: binds
binding result [8]: binds
binding result [9]: binds
binding result [10]: binds
B1: GST-MiD51^133-463, wild type (domain or fragment, human, UniProt Q9NQG6-1 133-463, looked up)
chain: MSLQEKLLTYYRNRAAIPAGEQARAKQAAVDICAELRSFLRAKLPDMPLRDMYLSGSLYDDLQVVTADHIQLIVPLVLEQNLWSCIPGEDTIMNVPGFFLVRRENPEYFPRGSSYWDRCVVGGYLSPKTVADTFEKVVAGSINWPAIGSLLDYVIRPAPPPEALTLEVQYERDKHLFIDFLPSVTLGDTVLVAKPHRLAQYDNLWRLSLRPAETARLRALDQADSGCRSLCLKILKAICKSTPALGHLTASQLTNVILHLAQEEADWSPDMLADRFLQALRGLISYLEAGVLPSALNPKVNLFAELTPEEIDELGYTLYCSLSEPEVLLQT
notes: also called cytosolic domain of MiD51; source: E. coli BL21 (DE3), purified (Glutathione Sepharose, eluted with reduced glutathione)
